Laboratory results taken from PMC6661058.

Molecular target: T1, CepR (His-tagged response regulator) (Streptomyces clavuligerus F613-1) (UniProt E2PWN2)
T1 sequence: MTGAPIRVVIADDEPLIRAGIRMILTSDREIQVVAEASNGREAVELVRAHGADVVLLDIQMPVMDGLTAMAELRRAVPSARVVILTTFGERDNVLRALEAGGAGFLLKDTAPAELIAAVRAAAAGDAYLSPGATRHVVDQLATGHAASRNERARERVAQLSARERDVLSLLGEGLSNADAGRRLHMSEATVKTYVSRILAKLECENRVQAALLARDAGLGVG
Assay: EMSA
Conditions: EMSA with 0.5-3.0 ug His-CepR and 1.0 ug poly(dI-dC); buffer, salt, pH and temperature not given (as in Fu et al. 2019; Zhang et al. 2015)

**Q.** With “ATGGTCGTCCGATCGCCGCACGATCACTGATCAAGCCCTGCCCCACCCCGGCGCAAAAATTATCCGCCGGGTCATCACGCGTCATCACCACGTAATTCGGGACGGGAATACCCTGCCGCATTCCCGCCGGGGCGGCCCGGTGGGGCGGCTCCCCTCCCGCAGGCGCGGCGGTGCCCGTCGCACACTCAAGGAAGAGGGCAATGAACGA (double strand) [cefD-cmcI intergenic P1]” as the sequence, how does the binding read?
**A.** Its binding is “no binding”.
